B1: Homeobox protein cut-like 2, residues 895 to 963; numbered along this chain, O14529 (parent)
chain: EVDTLELTRQVKEKLAKNGICQRIFGEKVLGLSQGSVSDMLSRPKPWSKLTQKGREPFIRMQLWLSDQL

Variants of: B1
Assay: abundance fitness (aPCA) (normalised: wild type 0, dead -1); higher = more abundant; growth selection in yeast, the domain comes from the species named
Conditions: Homo sapiens

Abundance fitness of substitutions, site by site:
T51: N -0.082 | A -0.1 | Y -0.011 | K -0.115 | D 0.117 | P -0.355 | H -0.235 | Q -0.247 | I -0.007 | W -0.033 | F -0.005 | V -0.115 | C -0.375 | G -0.145 | E -0.403 | L -0.082 | R -0.109
K45: M -0.053 | L -0.009 | P -0.073 | D -0.108 | Q -0.132 | V -0.083 | E -0.173 | A -0.129 | W -0.313 | T -0.149 | H -0.288 | R 0.128 | C -0.229 | F -0.243 | Y -0.265
W47: L -0.488 | G -1.01 | Y -0.554 | Q -0.84 | H -0.894 | T -0.654 | D -0.772 | R -0.793 | F -0.338 | V -0.808 | M -0.681 | K -1.28 | E -1.08 | N -0.895 | A -0.81 | C -1.01 | P -0.964
Q62: F -0.69 | W 0.005 | H -0.127 | A -0.098 | T -0.308 | M -0.153 | Y -0.278 | R 0.015 | K 0.17 | P -0.84 | G -0.06 | C -0.263 | V -0.367 | I -0.277 | S -0.079 | D -0.654 | N -0.401
R60: I -0.653 | Y -0.633 | T -0.209 | D -0.905 | Q -0.111 | G -0.287 | M -0.38 | W -0.553 | N -0.413 | P -0.912 | A -0.27 | F -1.08 | C -0.681 | V -0.863 | E -0.631 | S -0.396 | L -0.215 | H -0.462 | K 0.15
R43: H 0.004 | F -0.101 | W -0.191 | Y 0.017 | Q -0.066 | G -0.233 | M -0.224 | S 0.064 | V -0.23 | D 0.013 | N -0.03 | I -0.329 | T -0.162 | A -0.034 | P -0.357 | K -0.047 | C -0.14 | E -0.124
I59: P -0.937 | G -0.315 | W -0.299 | M -0.046 | D -0.535 | Q 0.031 | Y -0.059 | R 0.113 | T -0.049 | E 0.028 | A -0.079 | N -0.117 | H 0.051 | S -0.118 | F -0.212 | L -0.011 | C -0.278 | K 0.079
L50: D -0.607 | Y -0.191 | E -1.11 | Q -0.874 | C -0.488 | T -0.808 | K -1.3 | A -0.748 | I -0.437 | S -0.865 | F -0.315 | R -1.11 | W -0.12 | P -1.04 | V -0.522 | G -0.652
S48: K -0.088 | Q -0.085 | Y -0.084 | V -0.259 | A -0.064 | N -0.055 | R -0.13 | H -0.011 | C -0.003 | M -0.323 | F -0.19 | L -0.191 | T -0.085 | E -0.103 | P -0.229 | I -0.223 | W -0.387
P44: D -0.429 | A -0.103 | M -0.196 | I -0.113 | V -0.161 | H -0.241 | E -0.665 | Q -0.135 | F -0.105 | G -0.261 | S -0.171 | C -0.153 | R -0.03 | K -0.134 | Y -0.041 | W -0.103 | T -0.101 | N -0.385
S42: Y -0.075 | V -0.146
P46: L 0.026 | W 0.044 | N -0.223 | A -0.236 | C -0.319 | R -0.057 | Y -0.078 | F 0.039 | H -0.077 | Q -0.053 | T -0.08 | V -0.415 | I -0.071 | K -0.095 | S -0.093 | M -0.214
Q52: Y -0.073 | P 0.01 | K 0.094 | L -0.025 | V -0.034 | G -0.18 | R 0.015 | D 0.017 | I -0.06 | N -0.215 | H -0.218 | M -0.106 | W -0.187 | T 0.046 | A 0.042 | E -0.016 | C -0.038
G54: Y -0.165 | L -0.011 | D 0.201 | A 0.084 | P -0.581 | K -0.461 | M 0.004 | I 0.046 | W -0.097 | H -0.215 | C -0.007 | S -0.092 | T -0.084 | F -0.048
K49: P -0.731 | N -0.16 | H 0.009 | F -0.281 | Q 0.034 | T -0.035 | L 0.002 | Y -0.301 | I -0.112 | S -0.079
K53: E -0.017 | I -0.037 | A -0.014 | M -0.373 | Y -0.061 | D -0.3 | W -0.298 | Q -0.146 | V -0.259 | R -0.09 | G -0.309 | C -0.405 | N -0.233 | L -0.101 | H -0.194 | P -0.282 | T -0.166 | S 0.04
R55: H -0.654 | P -0.814 | M -0.385 | Y -0.76 | Q -0.303 | L -0.486 | K 0.052 | V -0.487 | C -0.625 | T -0.359 | D -0.954 | S -0.559 | A -0.511 | G -0.674 | F -0.569 | N -0.671 | I -0.684
M61: W -0.379 | S -0.606 | Y -1 | L -0.191 | H -0.812 | Q -1.02 | A -0.093 | V -0.418 | D -0.702 | K -1.05 | C -0.292 | F -0.157 | R -0.935 | G -0.735 | E -1.02
F58: A -0.917 | Y 0.186 | I -0.596 | R -0.906 | Q -1.01 | E -0.763 | C -0.845 | G -0.888 | L -0.274 | T -1.11 | V -0.662 | N -1.1 | W -0.111 | M -0.502 | K -1.11 | S -1.11
E56: G -0.245 | A -0.08 | D -0.186 | T -0.22 | Q -0.06 | S -0.203 | V -0.182 | N -0.348 | L -0.211 | W -0.314 | H -0.446 | M -0.213 | Y -0.248 | R -0.157 | K -0.156 | F -0.362 | I 0.096 | C -0.843 | P -0.605
P57: F -0.028 | T 0.017 | I 0.044 | G -0.456 | D -0.085 | K -0.058 | Q -0.036 | M 0.073 | H -0.026 | C -0.139 | V -0.117 | Y 0.027 | L 0.087 | R -0.081 | E -0.139 | A -0.016 | W -0.102 | S -0.034
